# Laboratory results: the nanobody polyreactivity screen of Harvey et al. (2022)
# Test: yeast display, Sf9 membrane polyspecificity reagent, FACS + sequencing; frameworks hold sequencing errors
# In short: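 Polyreactivity labels are assigned by the sorting gate from which each nanobody was recovered. The gates were low and high (top ~1%), set on anti-HA fluorescence for expression and streptavidin fluorescence for reagent binding. Before sorting, galactose-induced (36–48 hours) yeast display cells were stained for 1 hour at 4 °C with 10% biotinylated, detergent-solubilized Sf9 membrane reagent.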
row,Sequence,polyreactivity (PSR sort gate)
1,QVQLVESGGGLVQAGGSLRLSCAASGIIFYDYAMGWYRQAPGKERELVAAITSNGDNTYYADSVKGRFTISRDNAKNTVYLPMNSLKPEDTAVYYCAVDGSFAADFDNYLEEYGYWGQGTQVTVSS,low polyreactivity
2,QVQLVESGGGLVQAGGSLRLSCAASGIIFYENAMGWYRQAPGKERELVAAIDGDDGGTDYADSVKGRFTISRDNAKNTVYLQMNSLKPEDTAVYYCAADFGAETGYYYWGQGTQVTVSS,low polyreactivity
3,QVQLVESGGGLVQAGGSLRLSCAASGIIFYEYVMGWYRPAPGKERELVAAINRSGGSTYYADSVKGRFTISRDNAKNTVYLQMNSLKPEDTAVYYCAASSTYDGRKYYYWGQGTQVNVSS,high polyreactivity
4,QVQLVESGGGLVQAGGSLRLSCAASGIIFYEYVMGWYRQAPGKEREVVATISSIGGATYYADSVKGRFTISRDNAKNTVYLQMNSLKPEDTAVDYCAADPEPVVARGGNWYGDDDWGQGTQVTVSS,high polyreactivity
5,QVQLVESGGGLVQAGGSLRLSCAASGIIFYFYAMGWYRQAPGKERELVATITWSGTSTNYADSVKGRFTISRDNAKNTVYLQMNSLKPEDTAVYYCAARWPTGRNGYWGQGTQVTVSS,high polyreactivity
6,QVQLVESGGGLVQAGGSLRLSCAASGIIFYGYAMGWYRQAPGKERDLVAAISSGGGTNYADSVKGRFTISRDNAKNTVYLQMNSLIPEDTAVYYCASRQYRRVKQGNYWGQGTQVTVSS,high polyreactivity
7,QVQLVESGGGLVQAGGSLRLSCAASGIIFYGYAMGWYRQAPGKERELVAAITYSGGSTYYADSVKGRFTISRDNAKNTVYLQMNSLKPEDTAVYYCAAYDAYSPYQALYDYWGQGTQVTVSS,low polyreactivity
8,QVQLVESGGGLVQAGGSLRLSCAASGIIFYKYAMGWYRQAPGKERELVAVISSGGSTYYADSVKGRFTISRDNAKNTVYLQMNSLKPEYNAVYYCNADCYRRGYDYWGKGTQVTVSS,high polyreactivity
9,QVQLVESGGGLVQAGGSLRLSCAASGIIFYLYAMGWYRQAPGKERELVAAISGSGGNTYYADSVKGRFTISRDNAKNTVYLQMNSLKPEDTAVYYCAVAVFVWYAVIPYAEYDYWGQGTQVTVSS,high polyreactivity
10,QVQLVESGGGLVQAGGSLRLSCAASGIIFYPYAMGWYSLAPGKERELVAAISQSGGTTSYADSVKGRFTISRDNAKNTVYLQMNSLKPEDTAVYYCARRVSTRKRYYYWGQGTQVTVSS,high polyreactivity
11,QVQLVESGGGLVQAGGSLRLSCAASGIIFYRNARGWYRQAPGKERELVAAISSRGGNTYYADSVKGRFTISRDNAKNTVYLQMNSLQPEDTAVYYCARDSYSLSRTYDSWGQGTQVTLSS,high polyreactivity
12,QVQLVESGGGLVQAGGSLRLSCAASGIIFYRYAMGWYRQAPGKEWELVAAITRRGGSTYYADSVKGRFTISRDNAKNTVYLQMNSLKPEDTGVYYCNARVRYTSADPSYYSWGQGTQVTVSS,high polyreactivity
13,QVQLVESGGGLVQAGGSLRLSCAASGIIFYRYTMGWYRQAPGKERELVAAITSGGDTNYADSVKGRFTISRDNAKNTVYLQMNSLKPEDTAVYYCNADCWWYLYLYDFWGQGTQVTVSS,high polyreactivity
14,QVQLVESGGGLVQAGGSLRLSCAASGIIFYSYAMGWYRQAPGKERELVAAISRSSGRTYYADSVKGRFTISRDNAKNTVYLQMNSLKPEDTAVYYCATDYYYYPWEYDYWGQGTQVTVSS,high polyreactivity
15,QVQLVESGGGLVQAGGSLRLSCAASGIIFYTNAMGWYRQAPGKEREFVAAINTSGGITYYADSVKGRFTISRDNATNTVYLQMNSLKPEDTAVYYCAKDRRYRPPYGYEIEYAYWGQGTQVTVAS,low polyreactivity
16,QVQLVESGGGLVQAGGSLRLSCAASGIIFYVYALGWYRQAPGKERELVAAISYTSSTYADSVKGLFTISRDNAKNTVYLQMNSLKPEDTAVYYCNTDYSDGYPAFDFWGQGTQVTVSS,low polyreactivity
17,QVQLVESGGGLVQAGGSLRLSCAASGIIFYVYAMGWYRQAPGKERELVATITRRDDSTYYADSVKGRFTISRDNAKNTVYLQMNSLKPEDTAVSYCNADFWLLSEYDYWGQGTQVTVSS,low polyreactivity
18,QVQLVESGGGLVQAGGSLRLSCAASGIIFYYNAMGWYRPAPGNERELVAAISGRGGSTYYADSVKGRVTISRDNAKNTVYLQMTSLKPEDTAVYYCAAARVGSRYGYDYWGQGTQGTVSS,low polyreactivity
19,QVQLVESGGGLVQAGGSLRLSCAASGIIFYYNAMGWYRQAPGKERELVASIRWRGGSTYYADSVKGRFTISRDNAKNTVYLQMNSLKPEDTAVYYCNVVKYVYIYSYWEYYYWGQGTQVTVSS,low polyreactivity
20,QVQLVESGGGLVQAGGSLRLSCAASGIIFYYYAKGWYRQSPGKERELVAAISSSGGRTRYADSVKGRFTISRDNAKNTVFLQMNSLKPEDSAVYYCAAEFIRGYGESYDYWGQGTQVTVSS,low polyreactivity
21,QVQLVESGGGLVQAGGSLRLSCAASGIIFYYYAMGWYRQAPGKERELVAAIRSGGSTNYADSVKGRFTISRDNAKNTVYLQMNSLKPEDTAVYYCATRHDYLRAHYGYGSWGQGTQVTVSS,low polyreactivity
22,QVQLVESGGGLVQAGGSLRLSCAASGIIFYYYAMGWYRQAPGKERELVAAISTSGGRTYYADSVKGRFTISRDNAKSTVYLQMNSLKPEDTAVYYCAKDFWYVTGGWSSGLDYWGQGTQVTVSS,low polyreactivity

row,Sequence,polyreactivity (PSR sort gate)
1,QVQLVESGGGLVQAGGSLRLSCAASGIIFYYYGMGWYRQAPGKEREFVAAISTSGGNTYYADSVKGRFTISRDNAKNTVYLQMNSLKPEDTAVYYCAADDLAWGDAGVDYWGQGTEVTVSS,low polyreactivity
2,QVQLVESGGGLVQAGGSLRLSCAASGIIFYYYGMGWYRQAPGKEREFVAAISTSGGNTYYADSVKGRFTISRDNAKNTVYLQMNSLKPEDTAVYYCAADDWPWGDAGVDYWGQGTQVTVSS,low polyreactivity
3,QVQLVESGGGLVQAGGSLRLSCAASGIIIGANAMGWYRQAPWKERELLAAITSGGSTYYADSVKGRFTISRDNAKNTVYLQMNSLKPEDTAVYYCAADVFWLYSFTIYDYWGQGTQVTVSS,high polyreactivity
4,QVQLVESGGGLVQAGGSLRLSCAASGIIIGNNAMGWYRQAPGKERELVAAISRRGGSTYYADSVKGRFTISRDNAKNTVYLQMNSLKPEDTAVYYCAADIYRYNSYDYWGQGTQVTVSS,low polyreactivity
5,QVQLVESGGGLVQAGGSLRLSCAASGIIIVYNVMGWYRQAPGKERELVAAITNGDSTNYADSVKGRFTISRDNAKNTVYLQMNSLKPEDTAVYYCNVEGGYPLKYDYWGQGTQVSVSS,low polyreactivity
6,QVQLVESGGGLVQAGGSLRLSCAASGIIIWGNAMAWYRQAPGKERELVAAISSSSGSTYYADSVKGRFTISRDNAKNTVYLQMNRLKPVDTAVYYCAVDTPRSYRAQGAYYYWGQGTQVTVSS,low polyreactivity
7,QVQLVESGGGLVQAGGSLRLSCAASGIIIWYNTMGWYRQAPGKEREFVARISRRVGSTYYADSVKGRFTISRDNAKNTVYLQMNSLKPEDTAVYYCAASPYQVRYQWGNRLDYWGQGTQVTVSS,high polyreactivity
8,QVQLVESGGGLVQAGGSLRLSCAASGIIIYYNTMGWYRQAPGKEREFVDAISNSGGRTYYADSVKGRFTISRDNAKNTVYLQMNSLKPEDTADYYCAATYRQYSRSPWYYYCGQGTQVTVSS,high polyreactivity
9,QVQLVESGGGLVQAGGSLRLSCAASGIILDEYAMGVYSQAPGKERELVAAITWIGGSTYADSVKGRFTISRDNAKNTVYLQMNRLKPEDTAVYYCAADYPSLFVCYGYGWYNYDYWGQGTQVTVSS,low polyreactivity
10,QVQLVESGGGLVQAGGSLRLSCAASGIILGDYAMGWYRQAPGKERELVAAITSTGGRTYYADSVKGRFTISRDNAKNTVYLQMNSLKPEDTAVYYCAAQGSYRRYRPYYYWGQGTQVTVSS,high polyreactivity
11,QVQLVESGGGLVQAGGSLRLSCAASGIILGVYAMGWYRQAPGKEREFVAAITSSGGSTYYADSVKGRFTISRDNAKNTVYLQMNSLKPEDTAVYYCAADFDTSVRLYGPTRYDYWGQGTQVTVSS,low polyreactivity
12,QVQLVESGGGLVQAGGSLRLSCAASGIILNYYAMGWYRQAPGKERELVAAISSGGTTYYADSVKGRFTISRDNAKNTVYLQMNSLKPEDTAVYYCNADYLYSRGGDWRWWDMDYWGQGTQVTVSS,low polyreactivity
13,QVQLVESGGGLVQAGGSLRLSCAASGIILPYYAMGWYRQAPGKEREFVATISSDGTSTYYADSVKGRFTISRDNAKNTVYLQMNSLKPEDTAVYDCAARIRQNPGGDNSWGQGTQVTVSS,low polyreactivity
14,QVQLVESGGGLVQAGGSLRLSCAASGIILRRYAMGWYRQAPGKERELVAAISSRGGSTYYADSVKGRFTISRDNAKNTVYLQMNSLKPEDTAVYYCANRPYGRSGGSRYDYWGQGTQVTVSS,high polyreactivity
15,QVQLVESGGGLVQAGGSLRLSCAASGIILRYYAMGWYRQAPGKERELVAAISGSGTRTYYADSVKGRFTISRDNAKNTVYLQMNSLKPEDTAVYYCAALVWGGYDYWGQGTQVTVSS,high polyreactivity
16,QVQLVESGGGLVQAGGSLRLSCAASGIILYGYAMGWYRQAPGKERELVAAISRRGGITYYADSVKGRFTISRDNAKNTVYLQMNSLKPEDTAVYYCAADWYGYRQFHGYYWGQGTQVTVSS,high polyreactivity
17,QVQLVESGGGLVQAGGSLRLSCAASGIILYPYAMGWYRQAPGKERELVAAISWSGGSTYYADSVKGRFTISRDNAKNTVYLQMNSLKPEDTAVYYCAARPRRRYYGYDSWGQGTQVTVSS,high polyreactivity
18,QVQLVESGGGLVQAGGSLRLSCAASGIILYRYAMGWYRPAPGKERELVAAISRSGGNTYYADSVKGRFTISRDNAKNTVYLQMNSLKPEDTAVYYCAAKPLQGVRRVEYWGQGTQVTVSS,high polyreactivity
19,QVQLVESGGGLVQAGGSLRLSCAASGIILYYYAMGRYRPAPGKERELVASISRGDSTNYADSVKGRFTISRDNAKNTVYLQMNSLIPEDTAVYCNKDYLPSLYRGFDYWGQGTQVTVSS,low polyreactivity
20,QVQLVESGGGLVQAGGSLRLSCAASGIILYYYAMGWYRQAPGKERELVAAISSGGNTYYADSVKGRFTISRDNAKNTVYLQMTSLKPEDTAVYYCAAVTVIGGEYDYWGQGTQVTVSS,low polyreactivity
21,QVQLVESGGGLVQAGGSLRLSCAASGIISAHYAMGWYRQAPGKERELVAAISSSGGSTYYADSVKGRFTISRDNAKNTVYLQMNSLKPEDTAVYYCNAEFYWGYDYWGQGTQVTVSS,low polyreactivity
